What all share (test): SPR
On the technique in general: SPR reads the build-up and loss of mass on a sensor chip optically.

In test [1] the target is GST-APPBP1-UBA3 (Cys216Ala) (human) (UniProt Q13564).
The target of test [2] is GST-APPBP1-UBA3Arg190Ala (Cys216Ala) (human) (UniProt Q13564).
The target in test [3] is GST-APPBP1-UBA3Arg190Gln (Cys216Ala) (human) (UniProt Q13564).

pKd: −log10 of the molar value. A value given as a limit tells only on which side of the number the result lay.

A word on the pKd: it is the negative decadic logarithm of the Kd, by convention in mol/L. On to “NEDD8 (from UniProt Q15843 1-76) (natural protein)”, for which the pKd in test [1] was 6.48; in test [2] it was 5.26; in test [3], 5.46.
For “NEDD8Ala72Arg (from UniProt Q15843 1-76) (natural protein)” the same measures were less than 5.00, 5.78 and 5.99.
Taken in the same sequence, the figures for “NEDD8Ala72Gln (from UniProt Q15843 1-76) (natural protein)” were 5.06, less than 5.00 and less than 5.00.
Taken in the same sequence, the figures for “NEDD8Ala72Lys (from UniProt Q15843 1-76) (natural protein)” were less than 5.00, 5.53 and 6.05.

For the origin of these results see article PMC2587436.
